Test results: article PMC11637429

Target: 6xHis-FoxR^peri-T192A (purified whole periplasmic region of FoxR with T192A) (P. aeruginosa)
Test: AUC; sedimentation velocity titration: FoxR^peri fixed at 10 μm, FoxA^SD at 1, 2, 5, 10, 20, 40 and 80 μm; sw isotherm (absorbance and interference) globally fitted in SEDPHAT to an A+B <-> AB model; 8°C, 20 mM Tris pH 8.3, 500 mM NaCl, 1 mM DTT, 3% glycerol

Substance “6xHis-FoxA^SD (purified signaling domain of FoxA) (from UniProt Q9I116 53-820) (domain or fragment)” has a Kd of 4.3 µM and a stoichiometry N of 1.
